Several values for one entry are separate records, joined by “and”; a condition that tells them apart may be missing. Identical values can stand only once. Where no end group is shown, it is not given here. cellulose membrane = derivatized cellulose membrane (SPOTs) solid support, attached to the peptide C-terminus
Assays:
[1] = biological target: T1, human granulocyte-macrophage colony stimulating factor (GM-CSF) (human, UniProt P04141 18-144); test: BIACORE
T1 construct: The assays used recombinant human GM-CSF (in-house, PeproTech, or PE-labeled from R&D Systems); also called hGM-CSF; human GM-CSF

human mesothelin [2] = biological target: T2, human mesothelin (human, UniProt Q13421 296-598, limits assumed); test: antigen-specific ELISA (subsequent study, data not shown)
T2 construct: also called human Mesothilin

SEB [3] = biological target: T3, SEB (UniProt P01552 28-266); test: as above
T3 sequence: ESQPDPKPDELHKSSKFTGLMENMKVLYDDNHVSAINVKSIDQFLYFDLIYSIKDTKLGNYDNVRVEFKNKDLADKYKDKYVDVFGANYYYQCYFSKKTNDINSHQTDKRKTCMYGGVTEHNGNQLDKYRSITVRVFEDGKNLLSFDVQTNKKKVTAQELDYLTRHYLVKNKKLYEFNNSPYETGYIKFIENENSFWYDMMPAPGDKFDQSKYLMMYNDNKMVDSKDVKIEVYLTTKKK

HEL [4] = biological target: T4, HEL (UniProt P00698 19-147); test: as above
murine GM-CSF = biological target: T5, murine GM-CSF (murine, UniProt P01587 18-141); test: antigen panel ELISA, antigen coated on the plate, O.D. 450
T5 construct: also called mGM-CSF
T5 sequence (looked up): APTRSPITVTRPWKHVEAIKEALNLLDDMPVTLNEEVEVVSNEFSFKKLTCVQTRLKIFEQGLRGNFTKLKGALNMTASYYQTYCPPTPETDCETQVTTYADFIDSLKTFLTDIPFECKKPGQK

hIL-1a = biological target: T6, hIL-1a (human, UniProt P01583 113-271); test: as above
T6 sequence (looked up): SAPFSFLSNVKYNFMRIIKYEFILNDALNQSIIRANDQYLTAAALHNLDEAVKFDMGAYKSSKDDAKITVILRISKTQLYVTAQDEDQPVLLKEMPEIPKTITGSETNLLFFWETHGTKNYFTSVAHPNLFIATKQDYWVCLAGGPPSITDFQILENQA

h IL-2 = h IL-2 (human, UniProt P60568 21-153); test: as above
h IL-3 = biological target: T7, h IL-3 (human, UniProt P08700 20-152); test: as above
T7 sequence (looked up): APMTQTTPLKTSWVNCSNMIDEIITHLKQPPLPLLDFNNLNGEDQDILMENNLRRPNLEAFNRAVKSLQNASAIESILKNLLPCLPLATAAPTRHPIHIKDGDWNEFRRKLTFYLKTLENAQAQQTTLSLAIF

h IL-4 = biological target: T8, h IL-4 (human, UniProt P05112 25-153); test: as above
T8 sequence (looked up): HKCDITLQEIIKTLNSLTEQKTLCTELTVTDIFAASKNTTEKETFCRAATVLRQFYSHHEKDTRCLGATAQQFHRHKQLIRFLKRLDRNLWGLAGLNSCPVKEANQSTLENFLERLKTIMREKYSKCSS

h IL-5 = biological target: T9, h IL-5 (human, UniProt P05113 20-134); test: as above
T9 sequence (looked up): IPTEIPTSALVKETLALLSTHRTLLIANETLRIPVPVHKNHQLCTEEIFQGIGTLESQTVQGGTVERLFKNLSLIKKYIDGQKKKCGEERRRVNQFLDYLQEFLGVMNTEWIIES

IL-6 = IL-6 (Homo sapiens (Human), UniProt P05231 30-212); test: as above
hIL-13 = hIL-13 (human, UniProt P35225 35-146, limits assumed); test: as above
BSA = biological target: T10, BSA (bovine, UniProt P02769 25-607); test: as above
T10 construct: also called bovine serum albumin

[5] = biological target: T11, human GM-CSF overlapping 12-mer peptide #23; test: SPOTs peptide membrane, 1 mg/ml purified 10G9
T11 construct: Only 'possibly' recognized by G9
T11 peptide: KENLKDFLLVIP-{cellulose membrane}

[6] = biological target: T1, human granulocyte-macrophage colony …; test: apparent affinity, method not given
human mesothelin [7] = biological target: T2, human mesothelin; test: antigen specific ELISA (subsequent study, data not shown)
SEB [8] = biological target: T3, SEB; test: as above
HEL [9] = biological target: T4, HEL; test: as above
[10] = biological target: T12, human GM-CSF overlapping 12-mer peptide, SEQ ID NO:35 (human); test: SPOT peptide membrane probed with G9, HRP goat anti-human IgG, ECL
T12 construct: also called peptide #6
T12 peptide: ARRLLNLSRDTA-{cellulose membrane}

[11] = biological target: T13, human GM-CSF overlapping 12-mer peptide, SEQ ID NO:36 (human); test: as above
T13 construct: also called peptide #13
T13 peptide: TRLELYKQGLRG-{cellulose membrane}

[12] = biological target: T14, human GM-CSF overlapping 12-mer peptide, SEQ ID NO:37 (human); test: as above
T14 construct: also called peptide #14
T14 peptide: YKQGLRGSLTKL-{cellulose membrane}

[13] = biological target: T15, human GM-CSF overlapping 12-mer peptide, SEQ ID NO:38 (human); test: as above
T15 construct: also called peptide #15
T15 peptide: RGSLTKLKGPLT-{cellulose membrane}

T1 sequence (P04141 18-144): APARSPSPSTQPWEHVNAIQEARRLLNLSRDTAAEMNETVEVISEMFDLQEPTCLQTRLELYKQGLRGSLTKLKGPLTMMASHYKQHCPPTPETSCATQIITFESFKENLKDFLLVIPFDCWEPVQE
T2 sequence (Q13421 other isoform, or with tags, fused parts or gaps limits assumed): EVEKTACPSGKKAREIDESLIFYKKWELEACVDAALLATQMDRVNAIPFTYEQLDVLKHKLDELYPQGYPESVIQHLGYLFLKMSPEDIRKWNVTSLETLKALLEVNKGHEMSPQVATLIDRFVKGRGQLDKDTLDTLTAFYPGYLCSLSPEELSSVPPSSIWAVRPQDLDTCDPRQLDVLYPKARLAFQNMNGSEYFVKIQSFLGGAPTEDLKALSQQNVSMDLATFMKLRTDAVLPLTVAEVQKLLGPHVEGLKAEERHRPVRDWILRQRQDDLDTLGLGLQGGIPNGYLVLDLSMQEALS
T4 sequence (P00698 19-147): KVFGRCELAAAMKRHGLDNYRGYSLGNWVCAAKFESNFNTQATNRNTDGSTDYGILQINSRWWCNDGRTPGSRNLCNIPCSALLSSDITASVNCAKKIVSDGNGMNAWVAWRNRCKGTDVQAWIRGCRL
T10 sequence (P02769 25-607 limits assumed): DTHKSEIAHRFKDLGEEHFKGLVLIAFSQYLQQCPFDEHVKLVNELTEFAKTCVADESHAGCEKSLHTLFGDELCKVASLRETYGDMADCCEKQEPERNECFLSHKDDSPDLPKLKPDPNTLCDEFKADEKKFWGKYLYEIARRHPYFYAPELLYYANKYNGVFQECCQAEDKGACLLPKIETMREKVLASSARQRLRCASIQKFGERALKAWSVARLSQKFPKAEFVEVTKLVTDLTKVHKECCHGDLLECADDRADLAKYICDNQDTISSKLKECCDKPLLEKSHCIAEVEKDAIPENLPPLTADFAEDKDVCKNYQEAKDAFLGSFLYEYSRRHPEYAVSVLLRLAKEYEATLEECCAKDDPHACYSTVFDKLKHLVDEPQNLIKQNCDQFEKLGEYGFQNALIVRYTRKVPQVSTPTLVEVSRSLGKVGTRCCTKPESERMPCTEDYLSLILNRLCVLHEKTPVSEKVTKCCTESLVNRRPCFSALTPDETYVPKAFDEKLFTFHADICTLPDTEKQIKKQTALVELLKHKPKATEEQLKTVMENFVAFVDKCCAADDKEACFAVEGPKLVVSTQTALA
Chain of hIL-13 (P35225 35-146 limits assumed): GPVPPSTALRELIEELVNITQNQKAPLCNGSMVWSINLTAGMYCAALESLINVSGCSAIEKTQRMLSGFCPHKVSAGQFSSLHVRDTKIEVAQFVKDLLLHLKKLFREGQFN
Chain of h IL-2 (P60568 21-153 limits assumed): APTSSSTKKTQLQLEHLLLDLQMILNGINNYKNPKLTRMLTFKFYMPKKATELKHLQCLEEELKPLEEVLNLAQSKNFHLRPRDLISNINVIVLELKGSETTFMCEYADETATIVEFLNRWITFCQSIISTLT

B1: anti-GM-CSF human IgG1 monoclonal antibody E10 (antibody, V domains shown)
VH: QVQLEESGGGVVQPGRSLRLSCAASGFTFTNYGMHWVRQAPGKGLEWLALISYDGNRQYYADSVKGRFTVSRDNPNNTLHLEMKSLRAEDSAIYYCARGAGVLLWFGDLSWFDPWGQGTLVTVSS
VL: DIQMTQSPSNLSASVGDRVTITCRASQNINTWLAWYQHKPGKPPKLRIYQASTLESGVPSRFSGSGSGTIFTLTISSLQPDDFGTYYCQQNNSYPYTFGQGTKLEINR
notes: Fully human IgG1 kappa made by a hybridoma from B cells of a PAP patient; also called 4E10; E10.20
B1 was tested, and the Kd [1] was 0.87 nM and ~0.87 nM, the koff [1] was 2.16e-05 s⁻¹ and the kon [1] was 24700 M⁻¹ s⁻¹. B1: no binding (human mesothelin [2]); no binding (SEB [3]); no binding (HEL [4]). B1: no binding (murine GM-CSF); no binding (hIL-1a); no binding (h IL-2). B1: no binding (h IL-3); no binding (h IL-4); no binding (h IL-5). B1: no binding (IL-6); no binding (hIL-13); no binding (BSA).

B2: anti-GM-CSF human IgG1 monoclonal antibody G9 (antibody, V domains shown)
VH: EVQLVESGGGLVQPGGSLRLSCAASGFTFSRHWMHWLRQVPGKGPVWVSRINGAGTSITYADSVRGRFTISRDNANNTLFLQMNSLRADDTALYFCARANSVWFRGLFDYWGQGTPVTVSS
VL: EIVLTQSPVTLSVSPGERVTLSCRASQSVSTNLAWYQQKLGQGPRLLIYGASTRATDIPARFSGSGSETEFTLTISSLQSEDFAVYYCQQYDKWPDTFGQGTKLEIKR
notes: Fully human IgG1 kappa made by a hybridoma from B cells of a PAP patient; also called 10G9; 10G9.1
In the case of B2, the Kd [1] is reported as 0.0109 nM and 0.011 nM to 0.017 nM (2×), the koff [1] is reported as 9.27e-05 s⁻¹ and the kon [1] is reported as 8.47e+06 M⁻¹ s⁻¹. For the same binder, the binding result [5] was “binds”, the Kd [6] was 0.014 nM and the binding result (human mesothelin [7]) was “no binding”. B2: no binding (SEB [8]); no binding (HEL [9]); binds [10]. B2: binds [11]; binds [12]; binds [13].
